Source: IntAct's records for PubMed 22921829

B1: Mothers against decapentaplegic homolog 3 (Homo sapiens), P84022 (parent)
chain: MSSILPFTPPIVKRLLGWKKGEQNGQEEKWCEKAVKSLVKKLKKTGQLDELEKAITTQNVNTKCITIPRSLDGRLQVSHRKGLPHVIYCRLWRWPDLHSHHELRAMELCEFAFNMKKDEVCVNPYHYQRVETPVLPPVLVPRHTEIPAEFPPLDDYSHSIPENTNFPAGIEPQSNIPETPPPGYLSEDGETSDHQMNHSMDAGSPNLSPNPMSPAHNNLDLQPVTYCEPAFWCSISYYELNQRVGETFHASQPSMTVDGFTDPSNSERFCLGLLSNVNRNAAVELTRRHIGRGVRLYYIGGEVFAECLSDSAIFVQSPNCNQRYGWHPATVCKIPPGCNLKIFNNQEFAALLAQSVNQGFEAVYQLTRMCTIRMSFVKGWGAEYRRQTVTSTPCWIELHLNGPLQWLDKVLTQMGSPSIRCSSVS
B2: Mothers against decapentaplegic homolog 7 (Homo sapiens), O15105 (parent)
chain: MFRTKRSALVRRLWRSRAPGGEDEEEGAGGGGGGGELRGEGATDSRAHGAGGGGPGRAGCCLGKAVRGAKGHHHPHPPAAGAGAAGGAEADLKALTHSVLKKLKERQLELLLQAVESRGGTRTACLLLPGRLDCRLGPGAPAGAQPAQPPSSYSLPLLLCKVFRWPDLRHSSEVKRLCCCESYGKINPELVCCNPHHLSRLCELESPPPPYSRYPMDFLKPTADCPDAVPSSAETGGTNYLAPGGLSDSQLLLEPGDRSHWCVVAYWEEKTRVGRLYCVQEPSLDIFYDLPQGNGFCLGQLNSDNKSQLVQKVRSKIGCGIQLTREVDGVWVYNRSSYPIFIKSATLDNPDSRTLLVHKVFPGFSIKAFDYEKAYSLQRPNDHEFMQQPWTGFTVQISFVKGWGQCYTRQFISSCPCWLEVIFNSR
B3: E3 ubiquitin-protein ligase NEDD4-like (Homo sapiens), Q96PU5-5 (parent)
chain: MATGLGEPVYGLSEDEGESRILRVKVVSGIDLAKKDIFGASDPYVKLSLYVADENRELALVQTKTIKKTLNPKWNEEFYFRVNPSNHRLLFEVFDENRLTRDDFLGQVDVPLSHLPTEDPTMERPYTFKDFLLRPRSHKSRVKGFLRLKMAYMPKNGGQDEENSDQRDDMEHGWEVVDSNDSASQHQEELPPPPLPPGWEEKVDNLGRTYYVNHNNRTTQWHRPSLMDVSSESDNNIRQINQEAAHRRFRSRRHISEDLEPEPSEGGDVPEPWETISEEVNIAGDSLGLALPPPPASPGSRTSPQELSEELSRRLQITPDSNGEQFSSLIQREPSSRLRSCSVTDAVAEQGHLPPPSVAYVHTTPGLPSGWEERKDAKGRTYYVNHNNRTTTWTRPIMQLAEDGASGSATNSNNHLIEPQIRRPRSLSSPTVTLSAPLEGAKDSPVRRAVKDTLSNPQSPQPSPYNSPKPQHKVTQSFLPPGWEMRIAPNGRPFFIDHNTKTTTWEDPRLKFPVHMRSKTSLNPNDLGPLPPGWEERIHLDGRTFYIDHNSKITQWEDPRLQNPAITGPAVPYSREFKQKYDYFRKKLKKPADIPNRFEMKLHRNNIFEESYRRIMSVKRPDVLKARLWIEFESEKGLDYGGVAREWFFLLSKEMFNPYYGLFEYSATDNYTLQINPNSGLCNEDHLSYFTFIGRVAGLAVFHGKLLDGFFIRPFYKMMLGKQITLNDMESVDSEYYNSLKWILENDPTELDLMFCIDEENFGQTYQVDLKPNGSEIMVTNENKREYIDLVIQWRFVNRVQKQMNAFLEGFTELLPIDLIKIFDENELELLMCGLGDVDVNDWRQHSIYKNGYCPNHPVIQWFWKAVLLMDAEKRIRLLQFVTGTSRVPMNGFAELYGSNGPQLFTIEQWGSPEKLPRAHTCFNRLDLPPYETFEDLREKLLMAVENAQGFEGVD
B4: E3 ubiquitin-protein ligase SMURF1 (Homo sapiens), Q9HCE7-1 (parent)
chain: MSNPGTRRNGSSIKIRLTVLCAKNLAKKDFFRLPDPFAKIVVDGSGQCHSTDTVKNTLDPKWNQHYDLYVGKTDSITISVWNHKKIHKKQGAGFLGCVRLLSNAISRLKDTGYQRLDLCKLNPSDTDAVRGQIVVSLQTRDRIGTGGSVVDCRGLLENEGTVYEDSGPGRPLSCFMEEPAPYTDSTGAAAGGGNCRFVESPSQDQRLQAQRLRNPDVRGSLQTPQNRPHGHQSPELPEGYEQRTTVQGQVYFLHTQTGVSTWHDPRIPSPSGTIPGGDAAFLYEFLLQGHTSEPRDLNSVNCDELGPLPPGWEVRSTVSGRIYFVDHNNRTTQFTDPRLHHIMNHQCQLKEPSQPLPLPSEGSLEDEELPAQRYERDLVQKLKVLRHELSLQQPQAGHCRIEVSREEIFEESYRQIMKMRPKDLKKRLMVKFRGEEGLDYGGVAREWLYLLCHEMLNPYYGLFQYSTDNIYMLQINPDSSINPDHLSYFHFVGRIMGLAVFHGHYINGGFTVPFYKQLLGKPIQLSDLESVDPELHKSLVWILENDITPVLDHTFCVEHNAFGRILQHELKPNGRNVPVTEENKKEYVRLYVNWRFMRGIEAQFLALQKGFNELIPQHLLKPFDQKELELIIGGLDKIDLNDWKSNTRLKHCVADSNIVRWFWQAVETFDEERRARLLQFVTGSTRVPLQGFKALQGSTGAAGPRLFTIHLIDANTDNLPKAHTCFNRIDIPPYESYEKLYEKLLTAVEETCGFAVE

Variants of: B1
Conditions: with NEDD4L

Row | effect of a mutation on the interaction | Variant
1 | disrupting interaction strength | P181A;P182A
2 | disrupting interaction strength | T179A

Variants of: B2
Conditions: with NEDD4L

Row | effect of a mutation on the interaction | Variant
3 | disrupting interaction strength | MFRTKRSALVRRLWRSRAPGGEDEEEGAGGGGGGGELRGEGATDSRAHGAGGGGPGRAGCCLGKAVRGAKGHHHPHPPAAGAGAAGGAEADLKALTHSVLKKLKERQLELLLQAVESRGGTRTACLLLPGRLDCRLGPGAPAGAQPAQPPSSYSLPLLLCKVFRWPDLRHSSEVKRLCCCESYGKINPELVCCNPHHLSRLCELESPAAPYSRYPMDFLKPTADCPDAVPSSAETGGTNYLAPGGLSDSQLLLEPGDRSHWCVVAYWEEKTRVGRLYCVQEPSLDIFYDLPQGNGFCLGQLNSDNKSQLVQKVRSKIGCGIQLTREVDGVWVYNRSSYPIFIKSATLDNPDSRTLLVHKVFPGFSIKAFDYEKAYSLQRPNDHEFMQQPWTGFTVQISFVKGWGQCYTRQFISSCPCWLEVIFNSR [P208A;P209A]

Variants of: B3
Conditions: with smad7_human SMAD7, O15105

Row | effect of a mutation on the interaction | Variant
4 | decreasing interaction strength | R380E
5 | decreasing interaction strength | K378E;R380E
6 | decreasing interaction strength | K378E

Variants of: B4
Conditions: with smad7_human SMAD7, O15105

Row | Variant | effect of a mutation on the interaction
7 | Q249E | decreasing interaction strength
8 | R243A | decreasing interaction strength

Results, then the variant that gave them:

Row | effect of a mutation on the interaction | Variant
9 | decreasing interaction strength | Q247E;Q249E
10 | decreasing interaction strength | R243E
